Experiment [1] deals with human apolipoprotein E, apoE4 isoform (ε4 allele) (human) (UniProt P02649). Put plainly: co-IP.
In experiment [2] the target is prion protein (PrP) (mouse (endogenous in brain of APOE-TR mice)) (UniProt P04925). The experiment in a line: velocity sedimentation in a sucrose gradient.

Experimental findings from paper PMC12636710 are described below.

Chain of prion protein (PrP) (P04925 23-230): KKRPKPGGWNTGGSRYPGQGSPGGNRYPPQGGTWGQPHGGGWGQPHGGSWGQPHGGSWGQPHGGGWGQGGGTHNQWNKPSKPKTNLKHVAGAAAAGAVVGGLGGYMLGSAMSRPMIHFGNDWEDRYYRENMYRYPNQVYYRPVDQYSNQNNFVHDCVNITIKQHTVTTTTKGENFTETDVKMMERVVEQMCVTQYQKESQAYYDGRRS
Chain of human apolipoprotein E, apoE4 isoform (ε4 allele) (human) (P02649 19-317): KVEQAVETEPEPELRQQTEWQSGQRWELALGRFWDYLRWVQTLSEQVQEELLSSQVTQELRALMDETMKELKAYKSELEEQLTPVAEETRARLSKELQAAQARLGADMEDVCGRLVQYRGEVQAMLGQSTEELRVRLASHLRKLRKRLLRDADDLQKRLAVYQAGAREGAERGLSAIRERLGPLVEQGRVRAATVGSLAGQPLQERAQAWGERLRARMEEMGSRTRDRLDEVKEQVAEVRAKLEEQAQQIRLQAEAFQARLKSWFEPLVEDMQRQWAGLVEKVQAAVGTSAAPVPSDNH
Chain of prion protein (PrP), P04925 23-230 (natural protein; other documents disagree on this pair) (P04925 23-230): as the sequence (P04925 23-230) above

Take “prion protein (PrP) (from UniProt P04925 23-230) (natural protein)”: in experiment [1], the fold PrP/apoE OD ratio in the immunoprecipitate against ε2/ε2 22L mice stood at 2.8 fold and the fold PrP/apoE OD ratio in the immunoprecipitate against ε3/ε3 22L mice stood at 1.7 fold.
For orientation: stoichiometry N means a count of units in the complex or per binding partner. Take “prion protein (PrP), P04925 23-230 (natural protein; other documents disagree on this pair)”: the stoichiometry N in experiment [2] is greater than 10.
